Laboratory results published in paper PMC3961392.

Columns and labels:
[1] = molecular target: A3G NPM ins194_195NPM (UniProt Q9HC16); experiment: fluorescence anisotropy; settings: RT buffer: 50 mM Tris pH 7.4, 40 mM KCl, 10 mM MgCl2, 1 mM DTT; 10 nM F-labeled DNA; 21 C
[2] = molecular target: A3G (Homo sapiens?) (UniProt Q9HC16); experiment: fluorescence anisotropy; settings: RT buffer: 50 mM Tris pH 7.4, 40 mM KCl, 10 mM MgCl2, 1 mM DTT; 10 nM F-labeled DNA; 21 C
Sequence of A3G (Homo sapiens?) (Q9HC16 whole entry): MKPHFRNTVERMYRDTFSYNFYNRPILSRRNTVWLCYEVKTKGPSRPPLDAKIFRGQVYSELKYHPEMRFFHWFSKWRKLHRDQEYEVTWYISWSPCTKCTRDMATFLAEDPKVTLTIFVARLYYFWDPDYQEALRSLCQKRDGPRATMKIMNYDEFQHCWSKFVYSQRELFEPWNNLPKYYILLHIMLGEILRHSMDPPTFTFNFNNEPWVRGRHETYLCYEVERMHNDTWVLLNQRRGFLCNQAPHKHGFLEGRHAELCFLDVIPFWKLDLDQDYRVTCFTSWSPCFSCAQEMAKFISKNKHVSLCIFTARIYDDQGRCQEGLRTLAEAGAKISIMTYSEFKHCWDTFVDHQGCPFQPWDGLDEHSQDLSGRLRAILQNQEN

Sequence of A3G NPM ins194_195NPM (Q9HC16 whole entry): as above

For “GAATATATGTTGAGACCCAAAGTAATGAGAGATTGATTAGATGAGTGTAATGTGATATATGTGTATGAAAGATATAAGACCCAAAGAGTAAAGTTGTTAATGTGTGTAGATATGTTAA [A3G - 63 (118 nt, CCC)]”, the Kd [1] was 56 nM and the Kd [2] was 130 nM.
